Patent US20190300590A1 (PROTAGONIST THERAPEUTICS, published 2019)
Bridges are numbered along the chain shown (N, C = ends). [ ]: non-standard residue; d: D form. 1Nal = N[C@@H](Cc1cccc2ccccc12)C(=O)O; NMeH = CN[C@@H](Cc1c[nH]cn1)C(=O)O; AEA = NCCOCC(=O)O; βAla = NCCC(=O)O; Sar = CNCC(=O)O

T1: IL23R_huFC (human, UniProt Q5VWK5 24-353)
T1 sequence (looked up): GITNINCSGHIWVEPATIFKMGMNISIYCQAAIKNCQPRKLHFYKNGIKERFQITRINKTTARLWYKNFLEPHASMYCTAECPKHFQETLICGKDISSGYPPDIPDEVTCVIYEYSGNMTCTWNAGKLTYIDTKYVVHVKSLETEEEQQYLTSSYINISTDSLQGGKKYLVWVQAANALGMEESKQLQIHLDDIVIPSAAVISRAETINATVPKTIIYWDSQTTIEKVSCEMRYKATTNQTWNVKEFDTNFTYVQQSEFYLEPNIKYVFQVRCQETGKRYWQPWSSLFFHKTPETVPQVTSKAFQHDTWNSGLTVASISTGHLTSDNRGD

B1: Ac-CQTWQCYWR-[Sarc]-NG-[AEA]-[(D)-Lys]-NH2 (peptide)
peptide: Ac-CQTWQCYWR[Sar]NG[AEA][dK]-NH2
modifications: disulfide 1-6
SMILES: CC(=O)N[C@H]1CSSC[C@@H](C(=O)N[C@@H](Cc2ccc(O)cc2)C(=O)N[C@@H](Cc2c[nH]c3ccccc23)C(=O)N[C@@H](CCCNC(=N)N)C(=O)N(C)CC(=O)N[C@@H](CC(N)=O)C(=O)NCC(=O)NCCOCC(=O)N[C@H](CCCCN)C(N)=O)NC(=O)[C@H](CCC(N)=O)NC(=O)[C@H](Cc2c[nH]c3ccccc23)NC(=O)[C@H]([C@@H](C)O)NC(=O)[C@H](CCC(N)=O)NC1=O
B2: Ac-CADWVCY-[1-Nal]-H-[(D)Ala]-FG-NH2 (peptide)
peptide: Ac-CADWVCY[1Nal]H[dA]FG-NH2
modifications: disulfide 1-6
SMILES: CC(=O)N[C@H]1CSSC[C@@H](C(=O)N[C@@H](Cc2ccc(O)cc2)C(=O)N[C@@H](Cc2cccc3ccccc23)C(=O)N[C@@H](Cc2c[nH]cn2)C(=O)N[C@H](C)C(=O)N[C@@H](Cc2ccccc2)C(=O)NCC(N)=O)NC(=O)[C@H](C(C)C)NC(=O)[C@H](Cc2c[nH]c3ccccc23)NC(=O)[C@H](CC(=O)O)NC(=O)[C@H](C)NC1=O
B3: Ac-CADWVCY-[1-Nal]-[(D)Ala]-TFG-NH2 (peptide)
peptide: Ac-CADWVCY[1Nal][dA]TFG-NH2
modifications: disulfide 1-6
SMILES: CC(=O)N[C@H]1CSSC[C@@H](C(=O)N[C@@H](Cc2ccc(O)cc2)C(=O)N[C@@H](Cc2cccc3ccccc23)C(=O)N[C@H](C)C(=O)N[C@H](C(=O)N[C@@H](Cc2ccccc2)C(=O)NCC(N)=O)[C@@H](C)O)NC(=O)[C@H](C(C)C)NC(=O)[C@H](Cc2c[nH]c3ccccc23)NC(=O)[C@H](CC(=O)O)NC(=O)[C@H](C)NC1=O
B4: Ac-CADWVCY-[1-Nal]-FTFG-NH2 (peptide)
peptide: Ac-CADWVCY[1Nal]FTFG-NH2
modifications: disulfide 1-6
SMILES: CC(=O)N[C@H]1CSSC[C@@H](C(=O)N[C@@H](Cc2ccc(O)cc2)C(=O)N[C@@H](Cc2cccc3ccccc23)C(=O)N[C@@H](Cc2ccccc2)C(=O)N[C@H](C(=O)N[C@@H](Cc2ccccc2)C(=O)NCC(N)=O)[C@@H](C)O)NC(=O)[C@H](C(C)C)NC(=O)[C@H](Cc2c[nH]c3ccccc23)NC(=O)[C@H](CC(=O)O)NC(=O)[C@H](C)NC1=O
B5: Ac-CADWVCY-[1-Nal]-H-[b-Ala]-FG-NH2 (peptide)
peptide: Ac-CADWVCY[1Nal]H[βAla]FG-NH2
modifications: disulfide 1-6
SMILES: CC(=O)N[C@H]1CSSC[C@@H](C(=O)N[C@@H](Cc2ccc(O)cc2)C(=O)N[C@@H](Cc2cccc3ccccc23)C(=O)N[C@@H](Cc2c[nH]cn2)C(=O)NCCC(=O)N[C@@H](Cc2ccccc2)C(=O)NCC(N)=O)NC(=O)[C@H](C(C)C)NC(=O)[C@H](Cc2c[nH]c3ccccc23)NC(=O)[C@H](CC(=O)O)NC(=O)[C@H](C)NC1=O
B6: Hy-CADWVCY-[1-Nal]-[N-Me-His]-TF-OH (peptide)
peptide: H-CADWVCY[1Nal][NMeH]TF-OH
modifications: disulfide 1-6
SMILES: CC(C)[C@@H]1NC(=O)[C@H](Cc2c[nH]c3ccccc23)NC(=O)[C@H](CC(=O)O)NC(=O)[C@H](C)NC(=O)[C@@H](N)CSSC[C@@H](C(=O)N[C@@H](Cc2ccc(O)cc2)C(=O)N[C@@H](Cc2cccc3ccccc23)C(=O)N(C)[C@@H](Cc2c[nH]cn2)C(=O)N[C@H](C(=O)N[C@@H](Cc2ccccc2)C(=O)O)[C@@H](C)O)NC1=O

What follows are binders tested against T1, IL23R_huFC (assay: IL23-IL23R competitive ELISA).
Ac-[dK]SCADWVCYWHTFG-OH (disulfide 3-8 (inferred)) [Ac-[(D)Lys]-SCADWVCYWHTFG-OH] was tested, and the IC50 was > 1000 nM.
In the case of H-[βAla]SCADWVCYWHTFG-OH (disulfide 3-8 (inferred)) [Hy-[β-Ala]-SCADWVCYWHTFG-OH], the IC50 is reported as > 1000 nM.
With KACADWVCYWHTFG (Ac-; [(D)Lys]; [β-Ala]; disulfide) [Ac-[(D)Lys]-[β-Ala]-CADWVCYWHTFG-OH] the IC50 was > 1000 nM.
For H-CADWCCYWCTFG-NH2 (disulfide (positions not given here); also: disulfide pairing not given here) [Hy-CADWCCYWCTFG-NH2, listing 1 of 3 here], the IC50 was > 1000 nM.
In the case of H-CSDWECYWHIFG-NH2 (disulfide 1-6 (inferred)) [Hy-CSDWECYWHIFG-NH2], the IC50 is reported as > 1000 nM.
B1 was tested, and the IC50 was > 1000 nM.
With H-CQSWECYWHYYG-NH2 (disulfide 1-6 (inferred)) [Hy-CQSWECYWHYYG-NH2] the IC50 was > 1000 nM.
In the case of H-ACDWCCYWCTFG-NH2 (disulfide (positions not given here); also: disulfide pairing not given here) [Hy-ACDWCCYWCTFG-NH2], the IC50 is reported as > 1000 nM.
In the case of CADXVCYWHTFG ([1-Nal]; -NH2; disulfide) [Hy-CAD-[1-Nal]-VCYWHTFG-NH2], the IC50 is reported as > 1000 nM.
With CADXVCYWHTFG ([2-Nal]; -NH2; disulfide) [Hy-CAD-[2-Nal]-VCYWHTFG-NH2] the IC50 was > 1000 nM.
In the case of CADWVCYXHTFG (not fully specified; [1-BIP]; -NH2; disulfide) [Hy-CADWVCY-[1-BIP]-HTFG-NH2], the IC50 is reported as > 1000 nM.
For B2, the IC50 was > 1000 nM.
B3 was tested, and the IC50 was > 1000 nM.
In the case of B4, the IC50 is reported as > 1000 nM.
B5 was tested, and the IC50 was > 1000 nM.
For H-CKDWKCYWHIYG-NH2 (disulfide 1-6 (inferred)) [Hy-CKDWKCYWHIYG-NH2], the IC50 was > 1000 nM.
With H-AADWCAYWCTFG-NH2 (disulfide 5-9 (inferred)) [Hy-AADWCAYWCTFG-NH2] the IC50 was > 1000 nM.
For CADWVCYXHTFG ([Tic]; -NH2; disulfide) [Hy-CADWVCY[Tic]-HTFG-NH2], the IC50 was > 1000 nM.
B6 was tested, and the IC50 was > 1000 nM.
H-CADWVCYWHTF-NH2 (disulfide 1-6 (inferred)) [Hy-CADWVCYWHTF-NH2] was tested, and the IC50 was > 1000 nM.
In the case of H-CADWVCYWHT-NH2 (disulfide 1-6 (inferred)) [Hy-CADWVCYWHT-NH2], the IC50 is reported as > 1000 nM.
With CADXVCYWHTFG (not fully specified; [1-BIP]; -NH2; disulfide) [Hy-CAD-[1-BIP]-VCYWHTFG-NH2] the IC50 was > 1000 nM.
For H-CHTWVCYWHEFS-NH2 (disulfide 1-6 (inferred)) [Hy-CHTWVCYWHEFS-NH2], the IC50 was > 1000 nM.
With H-CQTWVCYWHTYG-NH2 (disulfide 1-6 (inferred)) [Hy-CQTWVCYWHTYG-NH2] the IC50 was > 1000 nM.
With H-CRTWVCYWHVFG-NH2 (disulfide 1-6 (inferred)) [Hy-CRTWVCYWHVFG-NH2] the IC50 was > 1000 nM.
H-CADWCCYWCTFG-NH2 (disulfide (positions not given here); also: disulfide pairing not given here) [Hy-CADWCCYWCTFG-NH2, listing 2 of 3 here] was tested, and the IC50 was > 1000 nM.
H-ACDWVCYWHTFG-NH2 (disulfide 2-6 (inferred)) [Hy-ACDWVCYWHTFG-NH2] was tested, and the IC50 was > 1000 nM.
H-CADWVCY[1Nal]HTF-OH (disulfide 1-6 (inferred)) [Hy-CADWVCY-[1-Nal]-HTF-OH] was tested, and the IC50 was > 1000 nM.
For H-CADWCCYWCTFG-NH2 (disulfide (positions not given here); also: disulfide pairing not given here) [Hy-CADWCCYWCTFG-NH2, listing 3 of 3 here], the IC50 was > 1000 nM.
H-CETWECYWHSFS-NH2 (disulfide 1-6 (inferred)) [Hy-CETWECYWHSFS-NH2] was tested, and the IC50 was > 1000 nM.
H-CGNWECYWHVYG-NH2 (disulfide 1-6 (inferred)) [Hy-CGNWECYWHVYG-NH2] was tested, and the IC50 was > 1000 nM.
KCADWVCYWHTFG (Ac-; [(D)Lys]; disulfide) [Ac-[(D)Lys]-CADWVCYWHTFG-OH] was tested, and the IC50 was > 1000 nM.
H-CTDWVCYWHEYS-NH2 (disulfide 1-6 (inferred)) [Hy-CTDWVCYWHEYS-NH2] was tested, and the IC50 was > 1000 nM.
In the case of H-CSDWRCYWHVFG-NH2 (disulfide 1-6 (inferred)) [Hy-CSDWRCYWHVFG-NH2], the IC50 is reported as > 1000 nM.
CADXVCYWHTFG ([Tic]; -NH2; disulfide) [Hy-CAD-[Tic]-VCYWHTFG-NH2] was tested, and the IC50 was > 1000 nM.
In the case of Ac-CADWVCYWHKFG-OH (disulfide 1-6 (inferred)) [Ac-CADWVCYWHKFG-OH], the IC50 is reported as > 1000 nM.
Ac-CKDWVCYWHTFG-OH (disulfide 1-6 (inferred)) [Ac-CKDWVCYWHTFG-OH] was tested, and the IC50 was > 1000 nM.
In the case of Ac-CATWVCYWHTFG-NH2 (disulfide 1-6 (inferred)) [Ac-CATWVCYWHTFG-NH2], the IC50 is reported as > 1000 nM.
For Ac-CADWVCYWHTKG-OH (disulfide 1-6 (inferred)) [Ac-CADWVCYWHTKG-OH], the IC50 was > 1000 nM.
Ac-CADWVCYWHTF[dK]-OH (disulfide 1-6 (inferred)) [Ac-CADWVCYWHTF-[(D)Lys]-OH] was tested, and the IC50 was > 1000 nM.
With Ac-CADWVCYWKTFG-OH (disulfide 1-6 (inferred)) [Ac-CADWVCYWKTFG-OH] the IC50 was > 1000 nM.
In the case of H-CADWVCYAHTFG-NH2 (disulfide 1-6 (inferred)) [Hy-CADWVCYAHTFG-NH2], the IC50 is reported as > 1000 nM.
